The results in this text go back to patent US20170067069A1 (SYNTHETIC GENOMICS, published 2017).

T1: Skp1-7479 (Nannochloropsis Skp1 protein, genome locus Naga_100005 g56) (Nannochloropsis gaditana)
T1 construct: also called SKP-7479
T1 chain: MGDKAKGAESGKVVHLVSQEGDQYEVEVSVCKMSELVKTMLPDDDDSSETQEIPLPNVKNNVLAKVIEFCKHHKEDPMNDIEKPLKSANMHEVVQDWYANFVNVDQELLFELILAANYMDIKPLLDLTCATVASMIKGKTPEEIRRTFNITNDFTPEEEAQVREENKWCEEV

T2: SKP1-8611 (Nannochloropsis Skp1 protein) (Nannochloropsis gaditana)
T2 construct: also called SKP-8611
T2 chain: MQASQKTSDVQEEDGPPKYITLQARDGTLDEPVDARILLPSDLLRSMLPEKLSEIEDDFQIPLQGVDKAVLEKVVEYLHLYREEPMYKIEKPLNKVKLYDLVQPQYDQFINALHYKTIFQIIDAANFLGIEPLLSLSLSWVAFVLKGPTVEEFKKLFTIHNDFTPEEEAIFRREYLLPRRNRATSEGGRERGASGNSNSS

B1: CRD1-117 (fragment of CHORD-3266 protein, amino acids 1-117) (other)
chain: MKLYVHYEEAGQDEKALTLKLTLPKSWAEQPLLQVLELFIESYNKKKTGLPPLDKDFVHMEKAGGVILPVGNIVSDMLSDRDDLYIRSGPGPARGKIAHLSSPPNAHASSESSTGLL
notes: Used as bait in the yeast two-hybrid screen, cloned into bait vector pGBKT7 (Clontech); also called CHORD domain fragment 1-117
B2: SGT1 (suppressor of G2 allele of skp1), Nannochloropsis gaditana, genome locus Naga_100120 g12 (other)
chain: MEQAQLAFMDEDYATADELFSAYIATHPDDATALVSRAAVHLKLNQPSQALHDAEAAASLKSDFEVAWYRQGVAAFALEDFSRAKEAFMRGRALLGDRPEPQGRRYDVWLRKTTLELGEHDEQGMTVVAEGGRKELRQEEGAKGIEATVPRSQPSPTHPPSSAPAIPAGHVKFQFYQTTSYVTVTILYKGLREEDANVSVQPRHLKVSVGADGDVLFDRALFETVVPEESTSKIFATKIEVKLRKAMEGLTWPELCALSPGAAASVHTVSAPTPDSHATALPSLAQGPATAPSSKPLRPYASTKDWGAVEKEISKELESEKPEGDEALNTLFRDIYAKGSDETRRAMVKSFQTSGGTVLSTNWEEVGKKDYEKEEERKAPEGMEWRKWGV
notes: also called Nannochloropsis SGT1; gene 1852

For experiment [1], the target named is B2. As to the kind of experiment: yeast two-hybrid screen, CRD1-117 bait against Nannochloropsis cDNA prey library; growth and blue color on selective media. The procedure:
The prey library was screened for by mating of the library-containing (prey) strain with each individual bait strain (i.e., a strain expressing CRD1-117) according to the Matchmaker™ Gold Yeast Two-Hybrid System User Manual (Clontech). […] Based on these numbers, it is estimated that more than 10 million interactions were tested.
After subtraction of false positives from the other domain hits, one hit remained which was unique to this domain: the gene encoding SGT1 (SEQ ID NO:27) encoded at N. gaditana genome locus Naga_100120 g12; Genbank Accession AZIL01000354.1. This gene is commonly referred to as “suppressor of G2 allele of skp1” because it was discovered in a genetic suppressor screen aimed at suppressing skp1-4, a mutant with defects in yeast kinetochore function (Hieter et al. 1999 Nature 402:362-363). SGT1 is an essential component of the yeast kinetochore assembly pathway and has been associated to a number of different biological roles in different organisms. Furthermore, mammalian SGT1 is known to interact with an Hsp90 chaperone and melusin, the human homolog of CHORD-3266. Similarly, the Arabidopsis CHORD-3266 homolog, RAR1, is also known to bind Arabidopsis SGT1 (Takahashi et al. (2003) PNAS USA 100:11777-11782). […]

Experiment [2] has as its target T1, Skp1-7479 (Nannochloropsis Skp1 …). As to the kind of experiment: direct yeast two-hybrid assay. From the text: (§1) In order to determine whether SGT1 (SEQ ID NO:27) and Skp1 were members of the same pathway, we tested whether Nannochloropsis SGT1 was capable of binding to Nannochloropsis Skp1 by Y2H. Two different Skp1 proteins were identified in Nannochloropsis, SKP1-8611 (polynucleotide SEQ ID NO:9 and polypeptide SEQ ID NO:28) and Skp1-7479 (SEQ ID NO:29 encoded at N. gaditana genome locus Naga_100005 g56, Genbank Accession AZIL01000936). Protein coding sequences were amplified using sequence specific primers for SGT1 (SEQ ID NO:30 and SEQ ID NO:31), SKP-8611 (SEQ ID NO:32 and SEQ ID NO:33), and SKP-7479 (SEQ ID NO:34 and SEQ ID NO:35) and cloned into the prey and bait vectors as described above.

Experiment [3] concerns the target T2, SKP1-8611 (Nannochloropsis Skp1 protein). As to the kind of experiment: direct yeast two-hybrid assay.
Text: as §1

Regarding B1, the binding result in experiment [1] is recorded as “binds”.

For B2, the binding result in experiment [2] and in experiment [3] was “binds” throughout.
